{"source": "patent US20070231406A1", "about": "“Use of gallium to treat biofilm-associated infections” (priority 2006, published 2007)", "origin": "cited, not measured here", "molecules": {"B1": {"name": "lactoferrin (protein, UniProt P02788 20-710, looked up)", "Lactotransferrin": "GRRRSVQWCAVSQPEATKCFQWQRNMRKVRGPPVSCIKRDSPIQCIQAIAENRADAVTLDGGFIYEAGLAPYKLRPVAAEVYGTERQPRTHYYAVAVVKKGGSFQLNELQGLKSCHTGLRRTAGWNVPIGTLRPFLNWTGPPEPIEAAVARFFSASCVPGADKGQFPNLCRLCAGTGENKCAFSSQEPYFSYSGAFKCLRDGAGDVAFIRESTVFEDLSDEAERDEYELLCPDNTRKPVDKFKDCHLARVPSHAVVARSVNGKEDAIWNLLRQAQEKFGKDKSPKFQLFGSPSGQKDLLFKDSAIGFSRVPPRIDSGLYLGSGYFTAIQNLRKSEEEVAARRARVVWCAVGEQELRKCNQWSGLSEGSVTCSSASTTEDCIALVLKGEADAMSLDGGYVYTAGKCGLVPVLAENYKSQQSSDPDPNCVDRPVEGYLAVAVVRRSDTSLTWNSVKGKKSCHTAVDRTAGWNIPMGLLFNQTGSCKFDEYFSQSCAPGSDPRSNLCALCIGDEQGENKCVPNSNERYYGYTGAFRCLAENAGDVAFVKDVTVLQNTDGNNNEAWAKDLKLADFALLCLDGKRKPVTEARSCHLAMAPNHAVVSRMDKVERLKQVLLHQQAKFGRNGSDCPDKFCLFQSETKNLLFNDNTECLARLHGKTTYEKYLGPQYVAGITNLKKCSTSPLLEACEFLRK"}}, "tested_on": "Pseudomonas aeruginosa biofilm", "details": "20 μg/ml lactoferrin"}
{"molecule": "B1", "values": [{"measurement": "Pseudomonas aeruginosa biofilm formation", "value": "inhibited"}]}
